Assay [1] has as its target T1, recombinant human CD47 (human, UniProt Q08722 19-139).
T1 construct: also called antigen CD47
Kind of assay: ELISA, coated recombinant human CD47. Here is the method:
(§1) ELISA was used to screen the anti-human CD47 antibodies in the hybridoma culture supernatants. A 96-well high-adsorption ELISA plate (Costar, catalog number 42592) was coated with 1 μg/mL of the recombinant human CD47 (Sino Biological Inc.) at 100 μL per well using carbonate buffer solution, pH=9.6 at 4° C. overnight. The plate was washed 5 times with PBST, and then blocked using PBST with 1% BSA, 300 μL/well, and incubated at 25° C. for 1 hour, and then washed 5 times with PBST. The culture supernatant samples and positive serum control were added, 100 μL/well, incubated at 25° C. for 1 hour, and then washed 5 times with PBST. The horseradish peroxidase-labeled anti-mouse IgG antibody (Abcam, catalog number Ab7068) diluted 1:10000 in PBST with 1% BSA was then added, 100 μL per well, and incubated at 25° C. for 1 hour. The plate was washed 5 times with PBST. The colorimetric substrate TMB was added, 100 μL/well, and developed at room temperature for 10 minutes. 1M H₂SO₄ was added, 100 μL/well, to stop the development. The absorbance at 450 nm was read on a microplate reader. Positive clones capable of secreting the anti-human CD47 selection antibodies were selected according to the magnitude of OD₄₅₀ₙₘ.
On the technique in general: ELISA stands for enzyme-linked immunosorbent assay.

Assay [2] has as its target T2, recombinant human CD47-Fc protein (ACROBiosystems, catalog number CD7-H52A5) (human, UniProt Q08722 19-139).
T2 construct: bought; not shown: Fc part of a bought fusion protein, not described
The assay can be described thus: competition ELISA, coated CD47-Fc, competitor biotin-labelled SIRPα 2 nM. On the procedure:
ELISA was used to determine whether the anti-human CD47 selection antibodies secreted by the positive clones can block the binding of CD47/SIRPα. A 96-well high-adsorption ELISA plate was coated with 1 μg/mL of the recombinant human CD47-Fc (ACROBiosystems) at 100 μL per well using carbonate buffer solution, pH=9.6 at 4° C. overnight. The plate was washed 5 times with PBST, and then blocked using PBST with 1% BSA, 300 μL/well, and incubated at 25° C. for 1 hour, and then washed 5 times with PBST. The anti-human CD47 selection antibody samples were added, 50 μL/well, the biotin-labelled SIRPα (ACROBiosystems) was added at a concentration of 4 nM (a final concentration of 2 nM), 50 μL/well, incubated at 25° C. for 90 minutes, and then washed 5 times with PBST. The Streptavidin-HRP (BD Pharmingen, catalog number 554066) diluted 1:1000 in PBST with 1% BSA was then added, 100 μL per well, and incubated at 25° C. for 1 hour. The plate was washed 5 times with PBST. The colorimetric substrate TMB was added, 100 μL/well, and developed at room temperature for 10 minutes. 1M H₂SO₄ was added, 100 μL/well, to stop the development. The absorbance at 450 nm was read on a microplate reader. The anti-human CD47 selection antibodies capable of inhibiting the binding of the human CD47-Fc/biotin-labelled SIRPα have a neutralizing activity. […]

Assay [3] concerns the target T2, recombinant human CD47-Fc protein …. The assay can be described thus: blocking ELISA: plate coated with human CD47-Fc, biotin-labelled SIRPα as the blocked ligand, falling OD450 curve; the sheet labels the half-maximal value EC50.
The target in assay [4] is T1, recombinant human CD47. Kind of assay: SPR, Biacore X100, antibody captured on Protein A chip, CD47 as analyte. The source says: Biacore X100 instrument (purchased from GE) was used to detect the kinetic constant of the chimeric anti-human CD47 monoclonal antibodies binding to its antigen human CD47. This instrument utilizes optical surface plasmon resonance technology to detect the association and dissociation between the molecules coated on the biochip and the molecules to be tested. The main reagent used is Protein A chip (GE Healthcare, 29-1275-57). The experimental procedure is briefly described as follows: the chimeric anti-human CD47 antibodies were diluted in running buffer (1×HBS-EP+10 mM HEPES, 150 mM NaCl, 3 mM EDTA, 0.05% surfactant P20, pH7.4). During the capture-binding phase, the antibodies at a concentration of 2 μg/mL were injected for 60 seconds at a speed of 10 μL/min. During the binding phase, the antigen CD47 was diluted into multiple concentrations with running buffer, injected for 120 seconds at a speed of 30 μL/min respectively. During the dissociation phase, running buffer was injected for 600 seconds at a speed of 10 μL/min. The regeneration condition is 10 mM glycinate solution, pH1.5. Association kinetic constants and dissociation kinetic constants were analyzed and calculated by Biacore X100 evaluation software. The association kinetic constants, dissociation kinetic constants and dissociation equilibrium constants of the chimeric anti-human CD47 antibodies were shown in Table 7.
As mentioned above, Biacore X100 instrument was used to detect the binding kinetic constant of the humanized anti-human CD47 monoclonal antibodies to its antigen human CD47. The association kinetic constants, dissociation kinetic constants and dissociation equilibrium constants of the humanized anti-human CD47 antibodies were shown in Table 10.

Assay [5] addresses T1, recombinant human CD47. Kind of assay: ELISA, plate coated with recombinant human CD47, OD450.
The target of assay [6] is recombinant human SIRPγ (ACROBiosystems) (human, UniProt Q9P1W8 29-360, limits assumed). Kind of assay: ELISA, coated recombinant protein. On the procedure:
(§2) Binding specificity of the chimeric anti-human CD47 mAbs was determined by ELISA. A 96-well high-adsorption ELISA plate was coated with 1 μg/mL of the recombinant human PD1, CD28, CTLA4, ICOS, BTLA, CD47, PD-L2, CD80, CD86, B7-H2, CD47, SIRPα and SIRPγ (all from ACROBiosystems), at 100 μL per well using carbonate buffer solution, pH=9.6 at 4° C. overnight. The plate was washed 5 times with PBST, and then blocked using PBST with 1% BSA, 300 μL/well, and incubated at 25° C. for 1 hour, and then washed 5 times with PBST. The chimeric anti-human CD47 mAb samples serially diluted in PBST with 1% BSA and the control CC-90002 and the isotype control were added, 100 μL/well, incubated at 25° C. for 1 hour, and then washed 5 times with PBST. The horseradish peroxidase-labeled anti-human IgG antibody (Chemicon, catalog number AP309P) diluted 1:10000 in PBST with 1% BSA was then added, 100 μL per well, and incubated at 25° C. for 1 hour. The plate was washed 5 times with PBST. The colorimetric substrate TMB was added, 100 μL/well, and developed at room temperature for 10 minutes. 1M H₂SO₄ was added, 100 μL/well, to stop the development. The absorbance at 450 nm was read on a microplate reader.

The target in assay [7] is T3, recombinant human B7-H2 (ACROBiosystems) (human, UniProt O75144 19-258, limits assumed).
T3 construct: counted here as a B7 family member
T3 sequence (looked up): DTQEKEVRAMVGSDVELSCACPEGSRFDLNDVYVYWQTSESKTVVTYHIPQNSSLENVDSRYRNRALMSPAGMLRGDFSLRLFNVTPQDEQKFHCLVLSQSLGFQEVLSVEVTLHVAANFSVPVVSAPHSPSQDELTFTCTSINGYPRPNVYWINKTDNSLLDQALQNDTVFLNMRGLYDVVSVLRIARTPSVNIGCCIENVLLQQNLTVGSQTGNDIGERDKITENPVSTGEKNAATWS
The assay can be described thus: ELISA, coated recombinant protein. On the procedure:
as §2

Assay [8] addresses T1, recombinant human CD47. The assay can be described thus: ELISA, plate coated with 1 µg/mL recombinant human CD47, OD450. On the procedure:
as §1, with “A” for “ELISA was used to screen the anti-human CD47 antibodies in the hybridoma culture supernatants. A”, “plate” for “plate (Costar, catalog number 42592)”, “anti-human CD47 antibody” for “culture supernatant”, “the” for “positive serum”, “control CC-90002 (a patent sequence from WO2016109415)” for “control”, “reader.” for “reader. Positive clones capable of secreting the anti-human CD47 selection antibodies were selected according to the magnitude of OD₄₅₀ₙₘ.”

Assay [9] has as its target T2, recombinant human CD47-Fc protein …. Kind of assay: blocking ELISA: plate coated with human CD47-Fc, 2 nM biotin-labelled SIRPα as the blocked ligand, falling OD450 curve; the sheet labels the half-maximal value EC50. Here is the method: A 96-well high-adsorption ELISA plate was coated with 1 μg/mL of the recombinant human CD47-Fc (ACROBiosystems) at 100 μL per well using carbonate buffer solution, pH=9.6 at 4° C. overnight. The plate was washed 5 times with PBST, and then blocked using PBST with 1% BSA, 300 μL/well, and incubated at 25° C. for 1 hour, and then washed 5 times with PBST. The anti-human CD47 antibody samples were added, 50 μL/well, the biotin-labelled SIRPα (ACROBiosystems) was added at a concentration of 4 nM (a final concentration of 2 nM), 50 μL/well, incubated at 25° C. for 90 minutes, and then washed 5 times with PBST. The Streptavidin-HRP (BD Pharmingen, catalog number 554066) diluted 1:1000 in PBST with 1% BSA was then added, 100 μL per well, and incubated at 25° C. for 1 hour. The plate was washed 5 times with PBST. The colorimetric substrate TMB was added, 100 μL/well, and developed at room temperature for 10 minutes. 1M H₂SO₄ was added, 100 μL/well, to stop the development. The absorbance at 450 nm was read on a microplate reader.

The text below walks through data of patent publication US20250277031A1 (BEIJING HANMI PHARMACEUTICAL, published 2025).

Substitutions are numbered along the chain they refer to.

T2 sequence (Q08722 19-139 limits assumed): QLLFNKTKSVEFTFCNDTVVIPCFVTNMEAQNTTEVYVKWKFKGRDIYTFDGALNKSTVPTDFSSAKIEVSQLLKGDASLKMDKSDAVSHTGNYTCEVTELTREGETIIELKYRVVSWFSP
T1 sequence (Q08722 19-139 limits assumed): as above
Sequence of recombinant human SIRPγ (ACROBiosystems) (Q9P1W8 29-360 limits assumed): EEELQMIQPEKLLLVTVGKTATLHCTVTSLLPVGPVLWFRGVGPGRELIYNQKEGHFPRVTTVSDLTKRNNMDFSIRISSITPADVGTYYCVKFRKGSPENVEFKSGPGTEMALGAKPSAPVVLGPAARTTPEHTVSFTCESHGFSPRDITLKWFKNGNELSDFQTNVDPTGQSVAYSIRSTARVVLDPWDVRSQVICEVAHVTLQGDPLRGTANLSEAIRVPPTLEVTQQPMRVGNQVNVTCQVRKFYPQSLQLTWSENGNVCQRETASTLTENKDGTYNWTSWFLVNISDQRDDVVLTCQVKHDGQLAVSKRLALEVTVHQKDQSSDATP

B1: anti-human CD47 murine monoclonal antibody secreted by clone CD47-18-5 (antibody, V domains shown)
VH: EVQLQQSGAELVKPGASVKLSCTASGFNIEDIYMHWVKQRPEQGLEWIGRIDPANDNTKYGPKLQGRATITADTSSNTAYLQLSGLTSEDTGVYYCVRRIPTDIMDYWGPGTSVTVSS
VL: DIVMTQSQKFMSTSVGDRVSITCKASQNVRTSIAWYQQKSGQSPKTLIYLASNRHTGVPDRFTGSGSGTDFTLTISNVQSEDLADYFCLQHWNYPFTFGSGTKLEIK
notes: murine hybridoma antibody
What is called EC50 is the concentration giving half of the maximal effect. By IC50 is commonly meant the concentration that inhibits the measured activity by half. In the case of B1, in the assay with recombinant human CD47 [1], the concentration for a half-maximal effect (EC50) was found to be 0.252 nM. Moreover, in [2], the concentration for half-maximal inhibition (IC50) stood at 1.48 nM.

B2: anti-human CD47 murine monoclonal antibody secreted by clone CD47-18-10 (antibody, V domains shown)
VH: B1 VH with L64F, I70M, P101T, I104V, P110Q
VL: B1 VL with S40P
notes: murine hybridoma antibody
Consider B2, for which the EC50 with recombinant human CD47 [1] is 0.273 nM. In [2], the IC50 was 2.1 nM.

B3: humanized anti-human CD47 monoclonal antibody BH3008b (antibody, human IgG4 S228P, kappa, V domains shown)
VH: QVQLVQSGAEVKKPGSSVKVSCKASGFNIEDIYMHWVRQAPGQGLEWMGRIDPANDNTKYGPKLQGRVTITADTSTNTAYMELSSLRSEDTAVYYCVRRIPTDIMDYWGQGTTVTVSS
VL: DIQMTQSPSSLSASVGDRVTITCKASQNVRTSIAWYQQKPGKAPKTLIYLASNRHTGVPSRFSGSGSGTEFTLTISNLQPEDFATYYCLQHWNYPFTFGQGTKLEIKR
notes: variable regions of Z11; the summary calls the humanized antibody an IgG4; also called Z11
The Kd is the concentration at which binding is half-saturated. In general, koff refers to the first-order rate constant of dissociation. A word on the kon: it is the second-order rate constant of association. In the case of B3, the half-maximal inhibitory concentration (IC50) in assay [3] was found to be 0.781 nM. In the assay with recombinant human CD47 [4], the Kd amounted to 1.17 nM, the off-rate (koff) was 0.00117 s⁻¹ and the on-rate (kon) came to 998000 M⁻¹ s⁻¹. The EC50 with recombinant human CD47 [5] is 0.035 nM.

B4: humanized anti-human CD47 monoclonal antibody BH3011b (antibody, human IgG4 S228P, kappa, V domains shown)
VH: B3 VH
VL: B3 VL with Y87F
notes: variable regions of Z12; the summary calls the humanized antibody an IgG4; also called Z12; BH301Tb
Regarding B4, in [3], the IC50 was found to be 0.741 nM. Besides, in the assay with recombinant human CD47 [4], the Kd was determined as 0.833 nM, the off-rate constant (koff) came out at 0.000852 s⁻¹ and the kon came to 1.02e+06 M⁻¹ s⁻¹. In the assay with recombinant human CD47 [5], the concentration giving a half-maximal response (EC50) was 0.029 nM.

B5: chimeric anti-human CD47 monoclonal antibody mAb-18-10 N297A (antibody, human IgG1, kappa, N297A)
heavy: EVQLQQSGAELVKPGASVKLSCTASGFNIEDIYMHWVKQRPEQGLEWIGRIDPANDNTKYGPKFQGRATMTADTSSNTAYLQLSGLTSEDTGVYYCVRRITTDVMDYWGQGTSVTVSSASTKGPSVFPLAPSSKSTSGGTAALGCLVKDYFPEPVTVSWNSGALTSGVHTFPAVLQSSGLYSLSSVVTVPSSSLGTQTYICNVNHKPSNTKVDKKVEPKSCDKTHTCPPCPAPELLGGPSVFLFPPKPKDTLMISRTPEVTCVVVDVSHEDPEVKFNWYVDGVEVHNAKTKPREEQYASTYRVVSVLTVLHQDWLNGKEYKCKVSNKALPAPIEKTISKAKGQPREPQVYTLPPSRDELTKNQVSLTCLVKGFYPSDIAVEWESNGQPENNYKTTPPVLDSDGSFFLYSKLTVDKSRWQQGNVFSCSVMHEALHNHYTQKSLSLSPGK
light: DIVMTQSQKFMSTSVGDRVSITCKASQNVRTSIAWYQQKPGQSPKTLIYLASNRHTGVPDRFTGSGSGTDFTLTISNVQSEDLADYFCLQHWNYPFTFGSGTKLEIKRTVAAPSVFIFPPSDEQLKSGTASVVCLLNNFYPREAKVQWKVDNALQSGNSQESVTEQDSKDSTYSLSSTLTLSKADYEKHKVYACEVTHQGLSSPVTKSFNRGEC
notes: no further substitution applied
B5: the binding result in assay [6] and in assay [7] was “no binding” each time. Also, the EC50 in the assay with recombinant human CD47 [8] came to 0.031 nM. In addition, the IC50 in assay [9] worked out at 1.69 nM.
